Experiment [1] deals with human GPVI, membrane expressed on platelets (human) (UniProt Q9HCN6). Briefly: flow cytometry ex vivo, hGP6^tg/tg platelets, competition with Emf3-FITC, 72 h after 4 mg/kg i.v. For orientation: Flow cytometry measures light scatter and fluorescence of single cells or particles in a stream.
For experiment [2] the target is unchanged. Briefly: flow cytometry ex vivo, hGP6^tg/tg platelets, competition with Emf3-FITC, 24 h after 4 mg/kg i.v.
Experiment [3] has the same target. Briefly: flow cytometry ex vivo, hGP6^tg/tg platelets, competition with Emf3-FITC, 48 h after 4 mg/kg i.v.
Experiment [4] has the same target. The experiment is described as follows: flow cytometry ex vivo, hGP6^tg/tg platelets, competition with Emf3-FITC, 96 h after 4 mg/kg i.v.
The target is the same in experiment [5]. Briefly: flow cytometry ex vivo, hGP6^tg/tg platelets, competition with Emf3-FITC, 120 h after 4 mg/kg i.v.
For experiment [6] the target is unchanged. Briefly: cell-based or functional assay.
Experiment [7] shares this target. Briefly: flow cytometry ex vivo, hGP6^tg/tg platelets, 48 h after 4 mg/kg i.v.
For experiment [8] the target is unchanged. The experiment is described as follows: flow cytometry ex vivo, hGP6^tg/tg platelets, 72 h after 4 mg/kg i.v.
The target in experiment [9] is T1, human GPVI-Fc fusion protein (human, UniProt Q9HCN6 21-267, limits assumed).
T1 construct: also called human GPVI protein antigen
T1 sequence (looked up): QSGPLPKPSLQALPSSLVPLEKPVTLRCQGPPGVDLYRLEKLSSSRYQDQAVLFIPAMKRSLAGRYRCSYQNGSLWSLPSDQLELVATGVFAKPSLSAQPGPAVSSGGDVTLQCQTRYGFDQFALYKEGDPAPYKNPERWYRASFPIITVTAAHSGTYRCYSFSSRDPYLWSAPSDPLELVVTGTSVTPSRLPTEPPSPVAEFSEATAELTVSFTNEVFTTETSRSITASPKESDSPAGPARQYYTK
The experiment is described as follows: method not stated at this place (BLI elsewhere); target printed as 'human GPVI'.

Experiment [10] addresses human GPVI, membrane expressed on platelets (human) (UniProt Q9HCN6). Briefly: flow cytometry ex vivo, hGP6^tg/tg platelets, competition with Emf3-FITC, 1 h after 4 mg/kg i.v.
A further experiment addresses T2, GPVI peptide 201V-E215 (human, not fully specified).
T2 construct: On the array as peptide-cellulose conjugate; as soluble (cleavable, Fmoc-rink-amide linker) peptide in the neutralisation; also called Val201 to Glu215
T2 peptide: VVTGTSVTPSRLPTE
Briefly: peptide microarray, HRP anti-mouse IgG.

A further experiment addresses T3, GPVI peptide 246S-P260 (human, not fully specified).
T3 construct: On the array as peptide-cellulose conjugate; as soluble (cleavable, Fmoc-rink-amide linker) peptide in the neutralisation; also called Ser246 to Pro260
T3 peptide: SITASPKESDSPAGP
The experiment is described as follows: peptide microarray, HRP anti-mouse IgG.

Experiment [11] has as its target T1, human GPVI-Fc fusion protein. Briefly: BLI (Octet), GPVI-Fc on biosensor, 1:1 fit.
The target in experiment [12] is human GPVI, membrane expressed on platelets (human) (UniProt Q9HCN6). Briefly: flow cytometry, hGP6^tg/tg platelets, anti-human IgG-Fab detection, EMA601 at 0.1 ug/mL.
Experiment [13] has the same target. Briefly: flow cytometry ex vivo, hGP6^tg/tg platelets, anti-human IgG-Fab-FITC, 1 h after 4 mg/kg i.v.
The target of experiment [14] is T1, human GPVI-Fc fusion protein. Briefly: ratio of KD values (0.46 nM against 0.195 nM).
In experiment [15] the target is human GPVI, membrane expressed on platelets (human) (UniProt Q9HCN6). The experiment is described as follows: flow cytometry, hGP6^tg/tg platelets, anti-human IgG-Fab detection, EMA601 at 0.2 ug/mL.

Ends that are not written are not given here.

B1: Emf6.1^Fab (Fab, V domains shown)
VH: QVQLKESGPGLVQPSQSLSITCTVSGFSLTSYGVTWVRQPPGKGLEWLGVIWGDGSTNYHSGLRSRLSISRDDSKSQVFLKLNSLQTDDTATYYCAKPIYYDFDDDAMDYWGQGTSVTVSS
VL: DIVMTQSQKFMSTSVGDRVSVTCKASQNVGTYVAWFQQKPGQSPKTLIYSASYRCSGVPDRFTGSGSGTDFTLTISNVQSDDLAEYFCHQYNNYPLTFGAGTKLELR
notes: also called Fab fragments of Emf6.1
In the case of B1, the % of the binding epitopes on GPVI occupied was 36% in experiment [1]; 76% in [2]; 50% in [3]; 19% in experiment [4]; 13% in experiment [5]; 90% in experiment [10]. Moreover, in [6], the thrombus volume on collagen under flow (1000 s^-1), human blood is 75 % reduction. Further, the receptor occupancy in experiment [7] is above 50%; in experiment [8] it was above 35%. In experiment [9], this molecule had a Kd of 0.46 nM.

B2: Emf6.1 IgG (mouse IgG2a kappa) (antibody, V domains shown)
VH: QVQLKESGPGLVQPSQSLSITCTVSGFSLTSYGVTWVRQPPGKGLEWLGVIWGDGSTNYHSGLRSRLSISRDDSKSQVFLKLNSLQTDDTATYYCAKPIYYDFDDDAMDYWGQGTSVTVSS
VL: DIVMTQSQKFMSTSVGDRVSVTCKASQNVGTYVAWFQQKPGQSPKTLIYSASYRCSGVPDRFTGSGSGTDFTLTISNVQSDDLAEYFCHQYNNYPLTFGAGTKLELR
notes: Mouse monoclonal IgG2a kappa from hybridoma (subclone of Emf6)
In the case of B2, the binding result with GPVI peptide 201V-E215 and in the experiment with GPVI peptide 246S-P260 was “binds” each time.

B3: HC1 LC2 humanized Fab (EMA601) (Fab, V domains shown)
VH: QVQLQESGPGLVKPSETLSLTCTASGFSLTSYGVTWIRQPPGKGLEWIGVIWGDGSTNYHSGLRSRVTISVDTSKSQFSLKLSSVTAADTAVYYCAKPIYYDFDDDAMDYWGQGTLVTVSS
VL: DIQMTQSPSSLSASVGDRVTITCKASQNVGTYVAWFQQRPGKAPKSLIYSASYRCSGVPSKFSGSGSGTDFTLTINSLQPEDFATYYCHQYNNYPLTFGQGTKVEIKR
notes: also called EMF601; VH1:VL2
In experiment [11], B3 had a dissociation constant (Kd) of 0.195 nM, an off-rate (koff) of 0.000123 s⁻¹ and an association rate constant (kon) of 628000 M⁻¹ s⁻¹. In experiment [12], this molecule displayed a % of the epitopes occupied compared to the highest tested concentration (50 µg/mL) of 57.3%. In experiment [6], this molecule returned a collagen-induced aggregation of washed human platelets of 50 % reduction; a potency to inhibit GPVI function in human and hGP6^tg/tg platelets in vitro, against ACT017 of 10 fold. The same molecule yielded a fold amount of bound Fab against ACT017 in [13] of 1.8 fold. Also, the “fold increase of affinity against Emf6.1^Fab” value in experiment [14] is around 2.3 fold. Besides, the % of the epitopes occupied compared to the highest tested concentration (50 µg/mL) in [15] is 86.2%.

B4: HC4 LC2 humanized Fab (Fab, V domains shown)
VH: QVQLVESGGGVVQPGRSLRLSCAASGFSLTSYGVTWVRQSPGKGLEWVAVIWGDGSTNYHSGLRSRLTISRDNSKNTLYLEMNSLRTEDTATYYCAKPIYYDFDDDAMDYWGQGTKVTVSS
VL: DIQMTQSPSSLSASVGDRVTITCKASQNVGTYVAWFQQRPGKAPKSLIYSASYRCSGVPSKFSGSGSGTDFTLTINSLQPEDFATYYCHQYNNYPLTFGQGTKVEIKR
notes: also called VH4:VL2
In [11], B4 gave an equilibrium dissociation constant (Kd) of 0.395 nM, a dissociation rate constant (koff) of 0.000508 s⁻¹ and an association rate constant (kon) of 1.29e+06 M⁻¹ s⁻¹.

B5: HC4 LC3 humanized Fab (Fab, V domains shown)
VH: QVQLVESGGGVVQPGRSLRLSCAASGFSLTSYGVTWVRQSPGKGLEWVAVIWGDGSTNYHSGLRSRLTISRDNSKNTLYLEMNSLRTEDTATYYCAKPIYYDFDDDAMDYWGQGTKVTVSS
VL: DIQLTQSPSTLSASVGDRVTITCKASQNVGTYVAWYQQKPGKAPKLLIYSASYRCSGVPSRFSGSGSGTEFTLTISSLQPDDFTTYYCHQYNNYPLTFGQGTKVEIKR
notes: also called VH4:VL3
Regarding B5, in experiment [11], the dissociation constant Kd was determined as 0.593 nM, the dissociation rate constant (koff) came to 0.000655 s⁻¹ and the kon is 1.1e+06 M⁻¹ s⁻¹.

B6: HC3 LC3 humanized Fab (Fab, V domains shown)
VH: QVQLVESGGGVVQPGRSLRLSCVASGFSLTSYGVTWVRQAPGKGLEWVAVIWGDGSTNYHSGLRSRFTISRDNSKNTMFLQMNSLRADDTAVYYCAKPIYYDFDDDAMDYWGQGTLVTVSS
VL: DIQLTQSPSTLSASVGDRVTITCKASQNVGTYVAWYQQKPGKAPKLLIYSASYRCSGVPSRFSGSGSGTEFTLTISSLQPDDFTTYYCHQYNNYPLTFGQGTKVEIKR
notes: also called VH3:VL3
For the molecule B6, in [11], the equilibrium dissociation constant (Kd) was found to be 0.299 nM, the koff stood at 0.000561 s⁻¹ and the kon came out at 1.87e+06 M⁻¹ s⁻¹.

B7: HC4 LC1 humanized Fab (Fab, V domains shown)
VH: QVQLVESGGGVVQPGRSLRLSCAASGFSLTSYGVTWVRQSPGKGLEWVAVIWGDGSTNYHSGLRSRLTISRDNSKNTLYLEMNSLRTEDTATYYCAKPIYYDFDDDAMDYWGQGTKVTVSS
VL: EIVLTQSPSSLSASVGDRVTITCKASQNVGTYVAWFQQKPGKAPKSLIYSASYRCSGVPSKFSGSGSGTDFTLTISSLQPEDFATYYCHQYNNYPLTFGQGTKLEIKR
notes: also called VH4:VL1
For the molecule B7, in experiment [11], the Kd was 0.425 nM, the koff is 0.000339 s⁻¹ and the association rate constant (kon) came out at 797000 M⁻¹ s⁻¹.

B8: HC3 LC2 humanized Fab (Fab, V domains shown)
VH: QVQLVESGGGVVQPGRSLRLSCVASGFSLTSYGVTWVRQAPGKGLEWVAVIWGDGSTNYHSGLRSRFTISRDNSKNTMFLQMNSLRADDTAVYYCAKPIYYDFDDDAMDYWGQGTLVTVSS
VL: DIQMTQSPSSLSASVGDRVTITCKASQNVGTYVAWFQQRPGKAPKSLIYSASYRCSGVPSKFSGSGSGTDFTLTINSLQPEDFATYYCHQYNNYPLTFGQGTKVEIKR
notes: also called VH3:VL2
As to B8, in [11], the dissociation constant Kd amounted to 0.215 nM, the koff was found to be 0.000362 s⁻¹ and the on-rate constant (kon) was determined as 1.68e+06 M⁻¹ s⁻¹.

B9: HC3 LC4 humanized Fab (Fab, V domains shown)
VH: QVQLVESGGGVVQPGRSLRLSCVASGFSLTSYGVTWVRQAPGKGLEWVAVIWGDGSTNYHSGLRSRFTISRDNSKNTMFLQMNSLRADDTAVYYCAKPIYYDFDDDAMDYWGQGTLVTVSS
VL: DIVMTQSPATLSLSPGDRATLSCKASQNVGTYVAWYQQKPGQAPRLLIYSASYRCSGIPARFSGSGSGTDFTLTISSLQSEDFAVYYCHQYNNYPLTFGGGTKVEIKR
notes: also called VH3:VL4
In experiment [11], B9 displayed a dissociation constant Kd of 0.431 nM, a koff of 0.000618 s⁻¹ and an on-rate (kon) of 1.43e+06 M⁻¹ s⁻¹.

B10: HC4 LC4 humanized Fab (Fab, V domains shown)
VH: QVQLVESGGGVVQPGRSLRLSCAASGFSLTSYGVTWVRQSPGKGLEWVAVIWGDGSTNYHSGLRSRLTISRDNSKNTLYLEMNSLRTEDTATYYCAKPIYYDFDDDAMDYWGQGTKVTVSS
VL: DIVMTQSPATLSLSPGDRATLSCKASQNVGTYVAWYQQKPGQAPRLLIYSASYRCSGIPARFSGSGSGTDFTLTISSLQSEDFAVYYCHQYNNYPLTFGGGTKVEIKR
notes: also called VH4:VL4
For the molecule B10, in experiment [11], the dissociation constant Kd was determined as 0.572 nM, the dissociation rate constant (koff) turned out to be 0.000412 s⁻¹ and the kon came out at 720000 M⁻¹ s⁻¹.

Broadly, the Kd is a measure of binding affinity in units of concentration. A lower Kd goes with a tighter complex. By koff is commonly meant the first-order rate constant of dissociation. A high value points to fast dissociation. One may read the kon as the rate constant with which the complex forms. High values mean faster complex formation, low ones slower complex formation.

The values are drawn from patent publication EP4431526A1 (Emfret Analytics GmbH & Co. KG, dated 2024).
